Assays:
Details in all cases: both partners purified
[1] = target: T1, Ski2-like helicase 1 (Slh1), subunit of the RQT complex, wild type (yeast, UniProt P53327 1-1967); test: cryo-EM structure; RQT-80S complex in conformation C1 (classical POST state); ubiquitinated CGN12-stalled disomes incubated 5 min at 25 °C with purified wild-type RQT and 1 mM ATP (post-splitting sample), vitrified; 80S refined to 2.4 Å, RQT locally refined to 3.5 Å
T1 construct: Slh1 (Rqt2), ATP-dependent Ski2-like RNA helicase of yeast RQT, 1967 amino acids; NTC residues 217-1122 and CTC residues 1123-1967 modelled, N-terminal domain 1-217 not visible; Co-purified with Cue3 and Rqt4 as the trimeric RQT complex; Eluted by TEV cleavage of the FTP tag; also called Rqt2; Slh1-FTP; source: yeast strain overexpressing RQT components (Slh1-FTP, Cue3, Rqt4), purified …

[2] = target: T1, Ski2-like helicase 1 (Slh1), subunit of …; test: cryo-EM structure; pre-splitting samples: ubiquitinated CGN6-stalled disomes with wild-type RQT, or ubiquitinated CGN12-stalled disomes with K316R-RQT (RQT*), 1 mM ATP, 5 min at 25 °C; RQT seen on the lead ribosome of intact disomes
[3] = target: T2, Slh1-K316R, ATPase-deficient Walker A mutant of the N-terminal cassette, subunit of K316R-RQT (yeast, UniProt P53327 1-1967, K316R); test: as above
T2 construct: Slh1 (Rqt2) of yeast RQT, 1967 amino acids, with the ATPase-deficient mutation K316R; Probably made and tagged like the wild-type Slh1-FTP; also called K316R-Slh1; source: purified RQT complex (K316R-Slh1 mutant)
T2 sequence (P53327 whole entry K316R): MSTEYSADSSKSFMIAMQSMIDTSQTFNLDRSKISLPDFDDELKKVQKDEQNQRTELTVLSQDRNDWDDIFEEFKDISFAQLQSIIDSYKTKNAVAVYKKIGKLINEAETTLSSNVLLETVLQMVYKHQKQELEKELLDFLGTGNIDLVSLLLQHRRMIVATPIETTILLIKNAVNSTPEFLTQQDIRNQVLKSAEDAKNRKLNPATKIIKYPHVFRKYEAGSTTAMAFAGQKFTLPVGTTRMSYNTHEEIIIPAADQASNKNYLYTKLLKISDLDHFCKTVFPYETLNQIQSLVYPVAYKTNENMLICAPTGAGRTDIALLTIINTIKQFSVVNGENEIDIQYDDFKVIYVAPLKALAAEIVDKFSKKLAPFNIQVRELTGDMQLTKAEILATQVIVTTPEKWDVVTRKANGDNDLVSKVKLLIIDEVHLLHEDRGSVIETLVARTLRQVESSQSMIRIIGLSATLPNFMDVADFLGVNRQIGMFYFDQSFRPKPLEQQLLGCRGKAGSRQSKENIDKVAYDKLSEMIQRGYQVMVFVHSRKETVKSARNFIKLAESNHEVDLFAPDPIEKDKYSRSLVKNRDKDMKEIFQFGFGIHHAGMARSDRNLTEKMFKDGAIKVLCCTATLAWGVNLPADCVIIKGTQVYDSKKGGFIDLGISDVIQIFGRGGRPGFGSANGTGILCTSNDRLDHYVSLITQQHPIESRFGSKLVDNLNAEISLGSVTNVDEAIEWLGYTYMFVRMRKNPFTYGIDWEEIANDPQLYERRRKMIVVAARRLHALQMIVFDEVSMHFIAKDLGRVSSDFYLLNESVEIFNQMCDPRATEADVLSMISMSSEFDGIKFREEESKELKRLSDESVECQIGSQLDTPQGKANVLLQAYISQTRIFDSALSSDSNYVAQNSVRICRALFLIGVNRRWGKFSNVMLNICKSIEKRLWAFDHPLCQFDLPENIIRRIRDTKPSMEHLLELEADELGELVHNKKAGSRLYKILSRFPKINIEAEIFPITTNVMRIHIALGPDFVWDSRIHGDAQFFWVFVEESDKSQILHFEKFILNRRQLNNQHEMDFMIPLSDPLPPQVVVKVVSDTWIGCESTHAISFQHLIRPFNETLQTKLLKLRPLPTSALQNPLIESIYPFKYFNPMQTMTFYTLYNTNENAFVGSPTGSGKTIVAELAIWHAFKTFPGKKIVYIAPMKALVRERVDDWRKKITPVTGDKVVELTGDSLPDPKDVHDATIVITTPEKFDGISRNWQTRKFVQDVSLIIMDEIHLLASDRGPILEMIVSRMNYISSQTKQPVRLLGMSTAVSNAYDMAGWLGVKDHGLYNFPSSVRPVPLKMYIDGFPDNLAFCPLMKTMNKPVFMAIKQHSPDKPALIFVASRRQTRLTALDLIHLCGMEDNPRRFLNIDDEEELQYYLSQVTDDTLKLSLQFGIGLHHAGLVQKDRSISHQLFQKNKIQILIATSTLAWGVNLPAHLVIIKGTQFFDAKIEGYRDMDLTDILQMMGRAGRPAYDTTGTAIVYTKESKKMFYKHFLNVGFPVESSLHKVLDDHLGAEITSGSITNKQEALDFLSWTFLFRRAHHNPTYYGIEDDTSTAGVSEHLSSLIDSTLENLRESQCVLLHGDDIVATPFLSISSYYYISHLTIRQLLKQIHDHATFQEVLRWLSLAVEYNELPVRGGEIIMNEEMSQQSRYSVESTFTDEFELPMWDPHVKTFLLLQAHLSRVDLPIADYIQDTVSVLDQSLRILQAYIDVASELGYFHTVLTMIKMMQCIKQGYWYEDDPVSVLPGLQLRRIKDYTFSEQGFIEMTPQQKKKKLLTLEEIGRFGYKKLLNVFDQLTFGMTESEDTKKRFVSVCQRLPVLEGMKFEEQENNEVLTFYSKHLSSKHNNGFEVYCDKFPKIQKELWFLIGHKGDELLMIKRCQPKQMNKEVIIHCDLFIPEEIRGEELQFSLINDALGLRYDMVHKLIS

T1 sequence (P53327 whole entry, the tested form may be a part, one chain of several): as the sequence (P53327 whole entry K316R) above, with R316K counted along it

B1: RACK1 (Asc1) of the 40S head (natural protein, UniProt P38011 1-319, looked up)
chain: MASNEVLVLRGTLEGHNGWVTSLATSAGQPNLLLSASRDKTLISWKLTGDDQKFGVPVRSFKGHSHIVQDCTLTADGAYALSASWDKTLRLWDVATGETYQRFVGHKSDVMSVDIDKKASMIISGSRDKTIKVWTIKGQCLATLLGHNDWVSQVRVVPNEKADDDSVTIISAGNDKMVKAWNLNQFQIEADFIGHNSNINTLTASPDGTLIASAGKDGEIMLWNLAAKKAMYTLSAQDEVFSLAFSPNRYWLAAATATGIKVFSLDPQYLVDDLRPEFAGYSKAAEPHAVSLAWSADGQTLFAGYTDNVIRVWQVMTAN
notes: RACK1 (Asc1), protein at the back side of the 40S head of the yeast ribosome; Stood in the assay as part of the whole 80S ribosome; source: endogenous, in ribosomes of a yeast cell-free translation extract; ribosome-nascent chain complexes purified (His-tag Dynabeads, sucrose gradient)
B1: binds [1].

B2: Cue3 (Rqt3), ubiquitin-binding CUE domain containing subunit of the RQT complex (natural protein, yeast, UniProt P53137 1-624, looked up)
chain: MLSRYNRVIEINGGNADISLPIVKFPPFKLRAQLIEKDPVVWLHLIETYVTYFEYLMQGANVELLDESTLDHLRLFLRTYLHEIADEEGKLLSLGINHDVSEQLYLLKGWIFSLIKKCGLLHLQIFGDSLWNLIKVYVRRNPDSIRGLIDGSLKPRINTQRVQLDKSYQVQQHLKQLIESGKFKRIDLRCVEDLLSAKSMQPNKFAENFFTANWIEILEALWAKGQGRGHKEARELIIISLFSVSADRLLKITKELGISNFETLALYPLLGTMLINEGVHKRLPDLKSKLLFLNLGGLSMDEGDHMSYPTSSGTEVNEEQLSALMELFPQFSKYQLSQTLLAYDNNIELVTNKIFEDPTIIEAFSREPAEEEVEPVSDGDNASFTEELSILDRGDSSKNKELDKKIISEGVPDELRNKTLTRALKLLYEADEDERDDTYDEADVNRSDPSKRIGLQEDEESYDTKDDSNEVRQDHNYHIVEAYLWNLLKEDPKLFERSKRGTKVRKTMKEMTSWSDEKIEGWCRMLERSPTRARLLEKKFMFKGNSKTGKTSYVHNRDSQNDGNVVKEQAKQKKSENIKKHEPQSTEQKKRQHAKNEKRKGARANHNRKKGHDKKLARAGNNAI
notes: Cue3 (Rqt3) of yeast RQT; only the N-terminal helical domain 1-297 modelled; CUE domain 298-360, four-helix bundle 468-541 and C-terminus 542-624 not visible
B2: binds [2]; binds [3].

B3: Rqt4, zinc-finger containing subunit of the RQT complex (natural protein, yeast)
chain: MTRKQAIDYAIKQVPQILPLEESDVKALCEQVLSTSSDDPEQIASKFLEFLGHEDLSFEFVMKFNELLNQNDKKEEKKTKNVHLEHTAPTSWKNESKQPTNNYINKKGDEKPKKLKDEKKSSTTRPTVQPSNQSTQSNPIKEKKEHRSKGKLQSLQEIDEAIKMLELRDSGSSKNCNCQGTRHPVFDIAPNCLHCGKVVCVIEGLNKGKCGHCHEQLISDNERTQMVEILNQEKNELNGSSSSLSNASNGANVPKKKTKTYKITSGMGKNLFAEQDKLFDFIERKRERERKRNEVLKLQEEKEESEAKERQASEHDHKAEENPELLAAQERLDRLLYFQDTSAERTKIIDNASDFDMNQEVGLWGSARERALALKKQQRNLRKWEKVEKERNGRREKYVVSMNIGSNGKVTMTEVPKDTENVIAGSDDDISDISDEEDISDLKHIHALKSEINTTKSLENLHLQSKAWDYERDKKQFDRPTYVKKNSDTAQQNRKTEEKAHDMQAYDLKSRVQVDQNADASVEQNILAVL
notes: Rqt4 of yeast RQT; two parts modelled (residues 171-219 and 323-381); PWI-like domain 1-74, helices flanking the zinc finger and the C-terminus not visible
B3: binds [2]; binds [3].

B4: ribosomal protein uS3 of the 40S subunit (natural protein, UniProt P05750 1-240, looked up)
chain: MVALISKKRKLVADGVFYAELNEFFTRELAEEGYSGVEVRVTPTKTEVIIRATRTQDVLGENGRRINELTLLVQKRFKYAPGTIVLYAERVQDRGLSAVAQAESMKFKLLNGLAIRRAAYGVVRYVMESGAKGCEVVVSGKLRAARAKAMKFADGFLIHSGQPVNDFIDTATRHVLMRQGVLGIKVKIMRDPAKSRTGPKALPDAVTIIEPKEEEPILAPSVKDYRPAEETEAQAEPVEA
notes: uS3 (Rps3), 40S ribosomal protein of yeast, part of the stalled ribosome; Stood in the assay as part of the whole 80S ribosome or disome, which had been ubiquitinated in vitro with Hel2; source: endogenous, in ribosomes of a yeast cell-free translation extract; ribosome-nascent chain complexes purified (His-tag Dynabeads, sucrose gradient)
B4: binds [1].

B5: ribosomal protein uS5 of the 40S subunit (natural protein, UniProt P25443 1-254, looked up)
chain: MSAPEAQQQKRGGFGGRNRGRPNRRGPRNTEEKGWVPVTKLGRLVKAGKITTIEEIFLHSLPVKEFQIIDTLLPGLQDEVMNIKPVQKQTRAGQRTRFKAVVVVGDSNGHVGLGIKTAKEVAGAIRAGIIIAKLSVIPIRRGYWGTNLGQPHSLATKTTGKCGSVTVRLIPAPRGSGIVASPAVKKLLQLAGVEDVYTQSNGKTRTLENTLKAAFVAIGNTYGFLTPNLWAEQPLPVSPLDIYSDEASAQKKRF
notes: uS5 (Rps2), 40S ribosomal protein of yeast; its usually flexible N-terminus is seen as extra density; Stood in the assay as part of the whole 80S ribosome; source: endogenous, in ribosomes of a yeast cell-free translation extract; ribosome-nascent chain complexes purified (His-tag Dynabeads, sucrose gradient)
B5: binds [1].
